Data set [1] has as its target human GPIHBP1 coated on ELISA wells (human) (UniProt Q8IV16). Put plainly: ELISA. A general note: An ELISA detects its analyte on a solid surface through an enzyme-linked reagent.
The data set “crystal structure” concerns the molecule itself. Put plainly: crystal structure.

“And” between values parts separate entries of the source, which are not always exact repeats. Equal entries are not always repeated.

Sequence of human GPIHBP1 coated on ELISA wells (human) (Q8IV16 21-151): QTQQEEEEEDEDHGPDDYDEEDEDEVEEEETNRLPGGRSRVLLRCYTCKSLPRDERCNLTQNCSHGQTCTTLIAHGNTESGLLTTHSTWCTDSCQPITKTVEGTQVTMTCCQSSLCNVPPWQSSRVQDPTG

In the case of “FLAG-tagged human LPL-M404R (from UniProt P06858 28-475) (enzyme)”, the percent reduction of binding against LPL-wt in data set [1] is 79% and 85%.

B1: human lipoprotein lipase harboring an R324A mutation (enzyme, UniProt P06858 28-475, looked up)
chain: ADQRRDFIDIESKFALRTPEDTAEDTCHLIPGVAESVATCHFNHSSKTFMVIHGWTVTGMYESWVPKLVAALYKREPDSNVIVVDWLSRAQEHYPVSAGYTKLVGQDVARFINWMEEEFNYPLDNVHLLGYSLGAHAAGIAGSLTNKKVNRITGLDPAGPNFEYAEAPSRLSPDDADFVDVLHTFTRGSPGRSIGIQKPVGHVDIYPNGGTFQPGCNIGEAIRVIAERGLGDVDQLVKCSHERSIHLFIDSLLNEENPSKAYRCSSKEAFEKGLCLSCRKNRCNNLGYEINKVRAKASSKMYLKTRSQMPYKVFHYQVKIHFSGTESETHTNQAFEISLYGTVAESENIPFTLPEVSTNKTYSFLIYTEVDIGELLMLKLKWKSDSYFSWSDWWSSPGFAIQKIRVKAGETQKKVIFCSREKVSHLQKGKAPAVFVKCHDKSLNKKSG
modifications: N-linked glycans at N70 and N386
Take B1: the binding result in “crystal structure” is given as “binds”.
